One assay deals with FGF receptor/BKL complex. As to the kind of experiment: FGF receptor potency in an Erk phosphorylation assay in HEK293 overexpressing human BKL. To be noted: for EC50: HEK293/BKL cells, pERK after 12 minutes. The class given is cell-based. How it is done:
In order to test the binding of the FGF21 derivatives to albumin, the assay was performed in the absence of serum albumin as well as in the presence of human serum albumin (HSA) (0.1% final assay concentration). An increase in EC50 value (decrease in potency) in the presence of serum albumin for FGF21 derivatives would indicate binding to serum albumin and represents a method to predict a protracted pharmacokinetic profile of the test substance in animal models. MetFGF21 (SEQ ID NO:2) is included for reference.
HEK293 cells endogenously express several FGF receptors, including FGFR1c, FGFR3c and FGFR4. These cells are unresponsive to FGF21 until transfected with the co-receptor beta-klotho (BKL). Activation of the FGF receptor/BKL complex leads to activation of the MAPK/ERK signalling pathway and phosphorylation of ERK. The level of phosphorylated ERK (pERK) at a given time point increases with increasing concentrations of FGF21. As described below the level of pERK is measured after 12 minutes of stimulation with a range of FGF21 analogue concentrations.
The HEK293/beta-klotho cells are seeded with 30.000 cells/well in 96 well plates in DMEM (BioWhittaker #BE12-604F/U1), supplemented with 10% FCS (Gibco #16140-071), 1% penicillin/streptomycin (Gibco #15140), 100 µg/ml Hygromycin B, (Calbiochem, # 400052). Two days later and 2 hours before addition of compound the cell medium is exchanged with 100 ∞l basal medium (DMEM (BioWhittaker #BE12-604F/U1)). The FGF21 analogues are diluted in assay medium (DMEM (BioWhittaker #BE12-604F/U1) supplemented with 0.02% Tween20), warmed to 37° C., added to the cells (100 μl) and incubated at 37° C. for 12 minutes. The FGF21 derivatives were also tested in the presence of 0.1% HSA (Sigma—A1887). All medium is quickly removed and 50 μl lysis buffer is added pr. well. The plate is shaken for 5 minutes and the lysate is ready for measurement of pERK. pERK is measured in 384 well plates with the AlphaScreen SureFire kit (PerkinElmer #TGRES10K). This kit is based on ERK and pERK specific antibodies coupled to donor and acceptor beads. The presence of pERK will bring acceptor and donor beads in close proximity and a signal is generated that is read on EnVision. The data are analysed using GraphPad Prism and the potency of the FGF21 proteins is described as absolute EC50 value.

The next assay deals with 3T3-L1 adipocytes (Mus musculus, UniProt P16092+Q99N32). As to the kind of experiment: Glucose uptake in 3T3-L1 adipocytes. The class given is cell-based. To be noted: stimulated 20 hours, 3H-deoxy-glucose. How it is done: The C-terminal modified analogues were tested for their ability to increase glucose uptake in 3T3-L1 mouse adipocytes. The following assay was used for determining the biological activity, or potency, of FGF21 analogues and derivatives of the invention.
Sequence of 3T3-L1 adipocytes (Q99N32 whole entry): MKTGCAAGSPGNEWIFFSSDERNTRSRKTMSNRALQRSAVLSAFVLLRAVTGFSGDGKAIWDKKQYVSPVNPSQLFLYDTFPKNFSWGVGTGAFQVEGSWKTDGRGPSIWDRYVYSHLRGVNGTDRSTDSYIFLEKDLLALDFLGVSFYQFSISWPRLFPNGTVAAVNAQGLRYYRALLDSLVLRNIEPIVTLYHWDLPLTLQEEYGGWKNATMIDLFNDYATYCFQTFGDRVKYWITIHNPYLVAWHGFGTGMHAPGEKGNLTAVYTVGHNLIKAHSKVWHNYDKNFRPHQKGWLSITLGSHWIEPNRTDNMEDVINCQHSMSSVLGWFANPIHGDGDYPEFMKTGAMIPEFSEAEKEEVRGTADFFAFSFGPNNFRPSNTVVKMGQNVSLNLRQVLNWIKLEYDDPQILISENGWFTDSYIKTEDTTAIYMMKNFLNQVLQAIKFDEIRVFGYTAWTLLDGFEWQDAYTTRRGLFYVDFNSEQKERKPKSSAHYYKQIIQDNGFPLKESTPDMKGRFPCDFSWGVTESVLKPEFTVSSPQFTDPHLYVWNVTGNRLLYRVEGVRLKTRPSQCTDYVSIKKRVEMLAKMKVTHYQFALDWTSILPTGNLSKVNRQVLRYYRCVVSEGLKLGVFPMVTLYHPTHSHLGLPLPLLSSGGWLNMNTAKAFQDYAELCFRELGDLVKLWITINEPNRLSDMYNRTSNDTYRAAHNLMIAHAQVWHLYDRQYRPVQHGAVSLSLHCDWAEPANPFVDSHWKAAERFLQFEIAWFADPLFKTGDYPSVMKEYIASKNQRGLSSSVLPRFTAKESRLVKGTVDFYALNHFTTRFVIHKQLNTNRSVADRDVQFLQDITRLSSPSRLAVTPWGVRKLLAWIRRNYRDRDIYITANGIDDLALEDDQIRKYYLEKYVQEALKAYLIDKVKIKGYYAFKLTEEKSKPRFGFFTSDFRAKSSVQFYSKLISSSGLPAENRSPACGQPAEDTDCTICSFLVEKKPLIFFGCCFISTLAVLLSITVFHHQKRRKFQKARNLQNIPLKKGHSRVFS
Sequence of 3T3-L1 adipocytes (P16092 22-822): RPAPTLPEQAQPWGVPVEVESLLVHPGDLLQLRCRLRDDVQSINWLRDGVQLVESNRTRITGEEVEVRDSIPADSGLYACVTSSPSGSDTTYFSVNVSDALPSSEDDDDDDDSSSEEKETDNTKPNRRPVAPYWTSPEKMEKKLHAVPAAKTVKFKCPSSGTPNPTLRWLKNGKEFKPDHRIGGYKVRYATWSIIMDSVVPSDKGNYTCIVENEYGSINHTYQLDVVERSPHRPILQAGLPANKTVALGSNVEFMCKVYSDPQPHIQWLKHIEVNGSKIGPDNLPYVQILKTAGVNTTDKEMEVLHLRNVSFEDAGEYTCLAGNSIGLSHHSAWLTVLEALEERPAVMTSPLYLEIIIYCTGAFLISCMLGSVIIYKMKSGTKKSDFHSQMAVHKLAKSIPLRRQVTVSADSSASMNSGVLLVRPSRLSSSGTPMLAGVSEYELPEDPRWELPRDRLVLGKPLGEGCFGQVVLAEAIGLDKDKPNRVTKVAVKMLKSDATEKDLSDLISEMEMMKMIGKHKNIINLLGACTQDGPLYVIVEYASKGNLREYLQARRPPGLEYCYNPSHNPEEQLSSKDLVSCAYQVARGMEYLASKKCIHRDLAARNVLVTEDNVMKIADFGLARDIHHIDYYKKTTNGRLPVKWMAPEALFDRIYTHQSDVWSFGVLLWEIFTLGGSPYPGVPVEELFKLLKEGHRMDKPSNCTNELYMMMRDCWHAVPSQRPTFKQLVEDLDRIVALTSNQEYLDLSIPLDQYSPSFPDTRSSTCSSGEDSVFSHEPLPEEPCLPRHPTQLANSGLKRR
The in vitro potency may also be determined in an assay with mouse 3T3-L1 adipocytes by testing the FGF21 analogues and derivatives for their ability to increase glucose uptake into adipocytes. Differentiated 3T3-L1 adipocytes endogenously express FGFR1c and BKL. The 3T3-L1 cells are unresponsive to FGF21 until after differentiated as differentiation lead to expression of the co-receptor BKL. Activation of the FGFR1 receptor/BKL complex increase the expression of glucose transporter 1 (GLUT1) and therefore FGF21 agonists will lead to an increased amount of glucose taken into the adipocytes in a dose responsive manner.
Mouse 3T3-L1 fibroblasts (e.g. available from ATCC, catalogue no. CL-173) were maintained in basal medium (DMEM (4500 mg/I Glucose) with 10% Fetal Bovine Serum (FBS) and 1% Penicillin/Streptomycin). The cells are not allowed to reach confluence and should be passed (transferred to new vials) before reaching approx. 60% of confluency (by visual inspection).
For the glucose uptake assay, cells were 15.000 cells/well in a 96 well plate (BIOCOAT), and when they reached confluency (high density, with a view to have differentiated adipose cells made), the medium was changed from basal medium to basal medium containing Troglitazone, IBMX, Dexamethasone (commercially available from, e.g., Sigma) and human insulin (commercially available from, e.g., Novo Nordisk A/S).
The cells were used 7-9, days after initiation of differentiation. The cells were stimulated with increasing concentrations (0-300 nM) of the FGF21 analogues or derivatives of the invention for 20 hours in basal medium. Before addition of 3H-deoxy-glucose (in what follows: the tracer) the cells were washed in warm (approximately 37° C.) assay buffer (PBS with 1 mM MgCl2 and 2 mM CaCl2), HEPES and 0.1% Human serum albumin) and the cells were incubated with the tracer for 1 hour. This incubation was terminated by washing twice in ice cold assay buffer. The cells were lysed with Triton X-100 and lysates transferred to a 96 wells plate, microscint-40 (commercially available from, e.g., Perkin Elmer) was added and amount of tracer counted in a TOP-counter (e.g. a Packard top-counter from Perkin Elmer). The EC50 and Emax of the FGF21 compound in question were calculated. The results which are shown in tables 4-5 below indicate the EC50 (potency) and Emax (efficacy) of the FGF21 analogues and derivatives, respectively.

The mark [1] stands for this setting: presence of 0.1% HSA, read-out: EC50 (0.1% HSA).

Numbering of substitutions follows the chain as printed. Where two headings read alike, the source gives them in different places.

Sequence of FGF receptor/BKL complex (Q86Z14 whole entry, one chain of several): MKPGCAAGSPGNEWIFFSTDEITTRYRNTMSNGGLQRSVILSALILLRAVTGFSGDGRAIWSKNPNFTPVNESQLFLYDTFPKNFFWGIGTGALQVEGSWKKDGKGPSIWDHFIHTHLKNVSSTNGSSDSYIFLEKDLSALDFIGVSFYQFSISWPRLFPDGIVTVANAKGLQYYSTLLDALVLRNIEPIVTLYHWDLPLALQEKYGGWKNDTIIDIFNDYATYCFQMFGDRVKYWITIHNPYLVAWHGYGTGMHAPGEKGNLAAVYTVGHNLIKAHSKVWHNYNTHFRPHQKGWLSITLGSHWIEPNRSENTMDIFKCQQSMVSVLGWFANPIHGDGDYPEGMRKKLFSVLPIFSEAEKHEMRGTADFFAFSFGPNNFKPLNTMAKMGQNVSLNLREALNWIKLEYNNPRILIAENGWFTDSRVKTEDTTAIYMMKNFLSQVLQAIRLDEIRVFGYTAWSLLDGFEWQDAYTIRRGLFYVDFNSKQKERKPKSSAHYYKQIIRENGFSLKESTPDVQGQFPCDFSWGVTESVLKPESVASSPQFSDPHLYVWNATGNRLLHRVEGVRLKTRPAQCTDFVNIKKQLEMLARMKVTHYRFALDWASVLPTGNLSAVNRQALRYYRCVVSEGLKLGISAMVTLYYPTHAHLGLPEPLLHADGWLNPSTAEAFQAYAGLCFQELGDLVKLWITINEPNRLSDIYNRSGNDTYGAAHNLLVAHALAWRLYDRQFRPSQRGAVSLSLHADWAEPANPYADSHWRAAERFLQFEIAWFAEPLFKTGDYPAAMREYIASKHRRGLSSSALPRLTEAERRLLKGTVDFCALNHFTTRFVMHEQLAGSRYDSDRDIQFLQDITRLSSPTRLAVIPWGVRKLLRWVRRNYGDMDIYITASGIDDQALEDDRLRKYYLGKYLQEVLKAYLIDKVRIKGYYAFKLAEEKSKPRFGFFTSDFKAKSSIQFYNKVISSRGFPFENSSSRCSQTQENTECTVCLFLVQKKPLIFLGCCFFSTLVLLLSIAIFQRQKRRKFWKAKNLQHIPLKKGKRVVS

Take “S{Beta-178}-[2-[2-[[2-[2-[2-[[2-[2-[2-[[(4S)-4-carboxy-4-(15-carboxypentadecanoyl-amino)butanoyl]amino]ethoxy]ethoxy]acetyl]amino]ethoxy]ethoxy]acetyl]amino]-ethylamino]-2-oxoethyl]-Ala[Gln121,Leu168,Cys178]FGF21 [Compound 11]”: the EC50 was 167 nM at FGF receptor/BKL complex (absence of HSA, read-out: EC50); 137 nM on FGF receptor/BKL complex (setting [1]); 186 nM at 3T3-L1 adipocytes. Also, at 3T3-L1 adipocytes, the “Glucose uptake Emax” value amounted to 59%.

B1: S{Beta-180}-2-aminoethylsulfanyl-Ala[Gln121, Leu168, Cys180]FGF21 (protein)
chain: AHPIPDSSPLLQFGGQVRQRYLYTDDAQQTEAHLEIREDGTVGGAADQSPESLLQLKALKPGVIQILGVKTSRFLCQRPDGALYGSLHFDPEACSFRELLLEDGYNVYQSEAHGLPLHLPGQKSPHRDPAPRGPARFLPLPGLPPALPEPPGILAPQPPDVGSSDPLSLVGPSQGRSPSYCS
modifications: N-terminal Ala; cysteamine disulfide on Cys180
For B1, the EC50 on FGF receptor/BKL complex (absence of HSA, read-out: EC50) stood at 2.3 nM. Moreover, in the assay on FGF receptor/BKL complex (absence of HSA), the “potency in HEK293/BKL cells compared with MetFGF21 or corresponding analogue (in words)” value is “potency similar to both MetFGF21 and Compound 2”. In the assay with 3T3-L1 adipocytes, the concentration giving a half-maximal response (EC50) was determined as 2.6 nM and the “Glucose uptake Emax” value was determined as 102%.

B2: S{Beta-181}-2-aminoethylsulfanyl-Ala[Gln121, Leu168, Cys181]FGF21 (protein)
chain: B1 chain with C181A, S182C
modifications: N-terminal Ala; cysteamine disulfide on Cys181
B2: the concentration for a half-maximal effect (EC50) on FGF receptor/BKL complex (absence of HSA, read-out: EC50) was 27 nM. The “potency in HEK293/BKL cells compared with MetFGF21 or corresponding analogue (in words)” value with FGF receptor/BKL complex (absence of HSA) is reported as “only slightly decreased as compared to MetFGF21”. Further, in the assay with 3T3-L1 adipocytes, the EC50 worked out at 5 nM and the “Glucose uptake Emax” value came to 74%.

B3: S{Beta-179}-2-aminoethylsulfanyl-Ala[Gln121, Leu168, Cys179]FGF21 (protein)
chain: B1 chain with Y180C, C181A
modifications: N-terminal Ala; cysteamine disulfide on Cys179
As to B3, the EC50 on FGF receptor/BKL complex (absence of HSA, read-out: EC50) was 69 nM; in the assay with 3T3-L1 adipocytes, 25 nM. Further, the “Glucose uptake Emax” value with 3T3-L1 adipocytes amounted to 77%.

B4: S{Beta-178}-2-aminoethylsulfanyl-Ala[Gln121, Leu168, Cys178]FGF21 (protein)
chain: B1 chain with S179C, C181A
modifications: N-terminal Ala; cysteamine disulfide on Cys178
For B4, the EC50 on FGF receptor/BKL complex (absence of HSA, read-out: EC50) stood at 105 nM. In the assay with 3T3-L1 adipocytes, it took 50 nM to reach a half-maximal effect (EC50) and the “Glucose uptake Emax” value turned out to be 69%.

B5: 16-[[4-[[(1S)-4-[2-[2-[2-[2-[2-[2-[[(1S)-5-[(2-acetamido]-1-carboxy-pentyl]amino]-2-oxo-ethoxy]ethoxy]ethylamino]-2-oxo-ethoxy]ethoxy]ethylamino]-1-carboxy-4-oxo-butyl]carbamoyl]cyclohexyl]methylamino … (protein)
chain: HPIPDSSPLLQFGGQVRQRYLYTDDAQQTEAHLEIREDGTVGGAADQSPESLLQLKALKPGVIQILGVKTSRFLCQRPDGALYGSLHFDPEACSFRELLLEDGYNVYQSEAHGLPLHLPGQKSPHRDPAPRGPARFLPLPGLPPALPEPPGILAPQPPDVGSSDPLSLVGPSQGRSPSYCS
Turning to B5, the EC50 was determined as 4 nM at FGF receptor/BKL complex (absence of HSA, read-out: EC50) and 2.1 nM on FGF receptor/BKL complex (setting [1]).

B6: 4-[10-[[(1S)-4-[2-[2-[2-[2-[2-[2-[[(1S)-5-acetamido-1-carboxy-pentyl]amino]-2-oxo-ethoxy]ethoxy]ethylamino]-2-oxo-ethoxy]ethoxy]ethylamino]-1-carboxy-4-oxo-butyl]amino]-10-oxo-decoxy]benzoic … (protein)
chain: B5 chain with C180A, S181C
Consider B6, for which the EC50 at FGF receptor/BKL complex (absence of HSA, read-out: EC50) is 26.4 nM; at FGF receptor/BKL complex (setting [1]), 138 nM.

B7: 4-[10-[[4-[2-[2-[2-[2-[2-[2-[[(1S)-5-acetamido-1-carboxy-pentyl]amino]-2-oxo-ethoxy]ethoxy]ethylamino]-2-oxo-ethoxy]ethoxy]ethylamino]-4-oxo-butyl]sulfonylamino]-10-oxo-decoxy]benzoic … (protein)
chain: B5 chain with C180A, S181C
Regarding B7, the EC50 was 24.7 nM on FGF receptor/BKL complex (absence of HSA, read-out: EC50) and 132 nM on FGF receptor/BKL complex (setting [1]).

B8: 12-[[4-[[(1S)-4-[2-[2-[2-[2-[2-[2-(2-acetamidoethylamino)-2-oxo-ethoxy]ethoxy]ethylamino]-2-oxo-ethoxy]ethoxy]ethylamino]-1-carboxy-4-oxo-butyl]carbamoyl]cyclohexyl]methylamino]-12-oxo-dodecanoic … (protein)
chain: B5 chain
B8: the 50% effective concentration (EC50) came out at 4 nM at FGF receptor/BKL complex (absence of HSA, read-out: EC50) and 4.7 nM at FGF receptor/BKL complex (setting [1]).

B9: 18-[[4-[[(1S)-4-[2-[2-[2-[2-[2-[2-[[(1S)-5-[(2-acetamido]-1-carboxy-pentyl]amino]-2-oxo-ethoxy]ethoxy]ethylamino]-2-oxo-ethoxy]ethoxy]ethylamino]-1-carboxy-4-oxo-butyl]carbamoyl]cyclohexyl]methylamino … (protein)
chain: B5 chain
Turning to B9, the EC50 was determined as 4 nM at FGF receptor/BKL complex (absence of HSA, read-out: EC50) and 14 nM on FGF receptor/BKL complex (setting [1]).

B10: 4-[10-[[(1S)-4-[2-[2-[2-[2-[2-[2-[[(1S)-5-acetamido-1-carboxy-pentyl]amino]-2-oxo-ethoxy]ethoxy]ethylamino]-2-oxo-ethoxy]ethoxy]ethylamino]-1-carboxy-4-oxo-butyl]amino]-10-oxo-decoxy]benzoic … (protein)
chain: B5 chain
In the case of B10, the 50% effective concentration (EC50) is 5 nM on FGF receptor/BKL complex (absence of HSA, read-out: EC50) and 3 nM on FGF receptor/BKL complex (setting [1]).

Broadly, the EC50 is the concentration at which the effect is half-maximal.
